± gives the standard error. For some assays here: This sample holds only a part of the variants without activity.
B1: glmS ribozyme (parent)
chain: AUAAAAGCGCCAGAACUACAGAAAUGUAGUUGACGAGGAGGAGGUUUAUCGAAUUUUCGGCGGAUGCCUCCAAA

Assays:
Details in all cases: with glucosamine-6-phosphate
glucosamine-6-phosphate [1] = variants of: B1; assay: kcat; higher = faster cleavage; RNA array
Method in brief: (§1)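 kobs was derived by fitting per-tile medians to one- or two-exponential decays after normalising signals to baseline and to non-cleaving reference variants. Those signals came from barcoded ribozyme variants transcribed in situ by E. coli RNA polymerase on sequenced MiSeq chips, followed through a hybridised Cy3 probe at 37 °C and imaged over ~14 h. Glucosamine-6-phosphate (40 μM to 10 mM) in HEPES/KCl/Mg(OAc)2 buffer was flowed in. Weighted Michaelis–Menten fits across concentrations then gave kcat and KM.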

glucosamine-6-phosphate [2] = variants of: B1; assay: KM; higher = weaker cofactor use; RNA array
Method in brief: as §1

glucosamine-6-phosphate [3] = variants of: B1; assay: self-cleavage kobs at 40 uM GlcN6P; higher = faster cleavage; RNA array
Method in brief: as §1

glucosamine-6-phosphate [4] = variants of: B1; assay: self-cleavage kobs at 160 uM GlcN6P; higher = faster cleavage; RNA array
Method in brief: as §1

glucosamine-6-phosphate [5] = variants of: B1; assay: self-cleavage kobs at 640 uM GlcN6P; higher = faster cleavage; RNA array
Method in brief: as §1

glucosamine-6-phosphate [6] = variants of: B1; assay: self-cleavage kobs at 2500 uM GlcN6P; higher = faster cleavage; RNA array
Method in brief: as §1

glucosamine-6-phosphate [7] = variants of: B1; assay: self-cleavage kobs at 10000 uM GlcN6P; higher = faster cleavage; RNA array
Method in brief: as §1

Variant	kcat (glucosamine-6-phosphate [1]) [s⁻¹]	KM (glucosamine-6-phosphate [2]) [µM]	self-cleavage kobs at 40 uM GlcN6P (glucosamine-6-phosphate [3]) [s⁻¹]	self-cleavage kobs at 160 uM GlcN6P (glucosamine-6-phosphate [4]) [s⁻¹]	self-cleavage kobs at 640 uM GlcN6P (glucosamine-6-phosphate [5]) [s⁻¹]	self-cleavage kobs at 2500 uM GlcN6P (glucosamine-6-phosphate [6]) [s⁻¹]	self-cleavage kobs at 10000 uM GlcN6P (glucosamine-6-phosphate [7]) [s⁻¹]
A15G A53U	0.0369 ± 0.0054	2500 ± 470	0.000575 ± 0.00011	0.0027 ± 0.00073	0.00647 ± 0.002	0.0176 ± 0.0065	0.0306 ± 0.0073
C10U U69A	1.11e-05 ± 3.7e-06						
U45G A52G	0.000403 ± 0.0001	3100 ± 1400			8.01e-05 ± 1.6e-05	0.000142 ± 3.2e-05	0.000345 ± 6e-05
U30A C71U	0.0039 ± 0.00081	1470 ± 450	0.000127 ± 2.5e-05	0.000337 ± 8e-05	0.00116 ± 0.00024	0.0021 ± 0.00045	0.00416 ± 0.00086
C16A C58G	3.2e-05 ± 7.1e-06					4.47e-05 ± 1.2e-05	2.59e-05 ± 8.5e-06
A42U A52U	3e-05 ± 6.8e-07	2350 ± 200		< 1e-05	< 1e-05		2.43e-05 ± 9.1e-06
U47A	0.0447 ± 0.0064	2150 ± 360	0.00084 ± 1.5e-05	0.00266 ± 0.00018	0.00994 ± 0.00044	0.0201 ± 0.0011	0.0412 ± 0.0016
U47C	0.00454 ± 0.0006	1380 ± 250	0.000129 ± 2.6e-06	0.000428 ± 1.8e-05	0.00142 ± 4.2e-05	0.00412 ± 0.00014	0.00375 ± 9.2e-05
A53C U55A	0.00829 ± 0.0024	2150 ± 840	0.000204 ± 1.9e-05	0.000453 ± 6.9e-05	0.00172 ± 0.00021	0.00411 ± 0.00049	0.00772 ± 0.00094
U45G U54G	0.0116 ± 0.0048		0.000213 ± 3.6e-05	0.000252 ± 9.5e-05	0.00187 ± 0.00046	0.00436 ± 0.0015	0.0084 ± 0.0012
G40U U65A	0.000363 ± 4.2e-05	735 ± 170		6.26e-05 ± 1.5e-05	0.000191 ± 3.7e-05	0.000235 ± 6.9e-05	0.000352 ± 7e-05
C16G C61A	1.02e-05 ± 1.1e-06						
U30A U65A	0.000636 ± 0.00012	2480 ± 800		5.83e-05 ± 2e-05	0.000114 ± 2.4e-05	0.000384 ± 8.4e-05	0.000495 ± 8.6e-05
G37U A53G	1.16e-05 ± 3.4e-06						
A39C C58U	1.02e-05 ± 1.6e-06						
G38U C58G	< 1e-05						
C34U G60A	< 1e-05				< 1e-05		< 1e-05
